Data taken from patent US11219645B2, “Tumor infiltrating lymphocytes for treatment of cancer” (Duke University, priority 2015, dated 2022).

Experiments:
[1] = test system: activated CD8+ T cells; test: C3aR and C5aR antagonists in vitro blockade, IL-10 intracellular staining; assay type: cell-based, mouse; conditions: 10 μmol/L of each antagonist, 6 days; FIG. 6J
Protocol: C3aR and C5aR Antagonists In Vitro Blockade: Mouse CD8+ T cells from lymph nodes were enriched using a negative selection kit (Stemcell Technologies; Cat #19853) and activated by plate-bound anti-CD3 (2 μg/mL) and anti-CD28 (1 μg/mL) antibodies for 72 hours. The activated CD8+ T cells were then cultured in complete medium alone (control), 10 μmol/L SB290157 (C3aR antagonist, C3aRA), 10 μmol/L PMX205 (C5aR antagonist, C5aRA), or a combination of 10 μmol/L SB290157 and 10 μmol/L PMX205 for 6 days. The IL10 expression was determined by intracellular staining.

[2] = cancer patients; cited from earlier work
[3] = test system: B16F10 cells; test: PD-L1 expression in tumor cells after IL-10 stimulation; assay type: cell-based, mouse; conditions: 500 U/mL IL-10 for 5 days; FIG. 7E
Protocol: (§1) B16F10 melanoma cells (2×10^5/mouse) were subcutaneously inoculated into wild-type (WT) and C3−/− mice. […] T cells from lymph nodes of naïve mice were activated by incubation with 3 μg/mL anti-CD3/CD28 antibodies for 48 hours with or without 500 U/mL IL-10 and analyzed for PD-1 expression. FIGS. 7C-D show PD-L1 expression on tumor cells developed in WT and C3−/− mice. Bl6F10 melanoma cells (2×10^5/mouse) or E0771 breast cancer cells (1×10^6/mouse) were subcutaneously inoculated into WT and C3−/− mice. PD-L1 expression in CD45-B16 tumor cells (FIG. 7C) and CD45-E0771 cells (FIG. 7D) was measured by flow cytometry at day 12 and day 19, respectively. […] B16F10 cells were cultured with or without 500 U/mL IL-10 for 5 days. PD-L1 expression was analyzed by flow cytometry. […] B16F10 cells were transduced with control virus or single-guide RNA (sgRNA)—targeting PD-L1 virus and selected with puromycin to generate a stable PD-L1-silenced polyclonal cell line. […] Control or PD-L1-silenced B16F10 melanoma cells (4×10^5/mouse) were subcutaneously inoculated into C3−/− and C3−/− Tiger mice. GFP expression in CD3+CD8+ TILs was analyzed by flow cytometry. […] Tumor development was monitored every day starting from day 7 after implantation (n=7, 7, 9, and 8 mice, respectively). […] Significance was determined in FIG. 7H and FIG. 7I by Student t test.*, P≤0.05; **, P≤0.01.

[4] = test system: mouse CD4+ T cells; test: Impact of IL-10 on effector cytokine production in mouse CD4+ T cells; assay type: cell-based; conditions: 100 U/ml rIL-2 plus 500 U/ml rIL-10 versus rIL-2, 48 hrs; FIG. 9E
Protocol: (§2) B16F10 melanoma cells (2×10^5/mouse) were subcutaneously inoculated into WT and C3−/− mice. The draining lymph nodes and tumors were dissected and treated with collagenase and DNase to obtain single cell suspensions. Leukocytes were pre-gated on CD45 positive cells. FIG. 9A show the CD11b and GR1expression in leukocytes from dLNs as analyzed by flow cytometry. […] WT and C3−/− mice were subcutaneously inoculated with B16F10 cells (2×10^5/mouse). IFNγ- and TNFα-producing CD4+ TILs were analyzed by flow cytometry (n=4 mice per group) at day 12 after tumor inoculation. […] CD4+ T cells were enriched from PBMCs of healthy donors and activated by anti-CD3/CD28 antibodies in vitro for 48 hrs. The activated CD4+ T cells were then cultured with 100 U/ml rIL-2 or 100 U/ml rIL-2 plus 500 U/ml rIL-10 for 48 hrs. The cells were activated using a Cell Activation Cocktail (Biolegend) for 6 hours before intracellular IFNγ and TNFα staining. The expression of IFNγ and TNFα was analyzed by flow cytometry (n=3). […] Mouse CD4+ T cells were enriched from the spleens of naïve mice using a negative selection kit and activated by anti-CD3/CD28 antibodies for 48 hours in vitro. The activated CD4+ T cells were then cultured with 100 U/ml rIL-2 or 100 U/ml rIL-2 plus 500 U/ml rIL-10 for 48 hrs. […] The expression of IFNγ and TNFα was analyzed by flow cytometry (n=3). […]

[5] = test system: Human TILs from lung cancer patients; test: T cell exhaustion markers on CD8+ TILs after IL-10 culture, flow cytometry; assay type: cell-based; conditions: IL-2 plus IL-10 versus IL-2, 21 days culture; FIG. 10
Protocol: T cells were activated by anti-CD3/CD28 antibodies for 24 hrs. The surface expression of PD-1, LAG-3 and TIM-3 was analyzed by flow cytometry. FACS profiles are representative of three patients.

[6] = test system: TILs from human lung tumors; test: In vitro expansion of human TILs cultured with IL-2 and/or IL-10; assay type: cell-based; conditions: FIG. 5A
Protocol: (§3) The plates were placed in a humidified 37° C. incubator with 5% CO2.
as §3

[7] = test system: activated CD8+ T cells; test: PD-1 expression on CD8+ T cells activated with anti-CD3/CD28 in the presence of IL-10; assay type: cell-based, mouse; conditions: 500 U/mL IL-10, 48 hours, 3 μg/mL anti-CD3/CD28; FIG. 7B
Protocol: as §1

[8] = test system: CD8+ TILs from human lung tumors; test: mRNA expression profiling (microarray) of expanded CD8+ TILs; assay type: cell-based; conditions: IL-10/IL-2-cultured versus IL-2-cultured CD8+ TILs
Protocol: Microarray Data Analysis: TILs from human lung tumors were in vitro—expanded for 20 days with 6,000 U/mL rIL2 and/or 100 U/mL rIL10. The expanded TILs were activated by incubation in 3 μg/mL anti-CD3/CD28 antibodies for 6 hours. The CD8+ TILs were enriched by negative selection using a kit (Stemcell Technologies). RNA was extracted using TRIzol reagent (Life Technologies) according to the instructions. Microarray analyses were performed using human U133A 2.0 arrays by the Duke University microarray facility. Raw intensities from the CEL files were analyzed using PartekGenomics Suite (Partek Incorporated) with standard background correction to generate an RMA (robust multiarray average intensity) on a log 2 scale for each probe set. Probe sets were filtered for “present” detection in two or more arrays, and the interquartile intensity range was >0.5. The filtered RMA intensities were then analyzed for differential expression using the advanced ANOVA, and differentially expressed genes were generated with/without FDR-adjusted P values using the Benjamini-Hochberg method.

[9] = test system: human CD4+ T cells; test: Impact of IL-10 on effector cytokine production in human CD4+ T cells; assay type: cell-based; conditions: 100 U/ml rIL-2 plus 500 U/ml rIL-10 versus rIL-2, 48 hrs; FIG. 9D
Protocol: as §2

hydrocinnamate-(L-ornithine-proline-D-cyclohexylalanine-tryptophan-arginine) [PMX205]
IL-10 expression in activated CD8+ T cells [1]: slightly increased IL-10 expression

Pegylated IL-10: Pegylated IL-10 given to cancer patients
adverse effect profile [2]: manageable adverse effect profile

NC(N)=NCCC[C@H](NC(=O)COCC(c1ccccc1)c1ccccc1)C(=O)O [SB 290157]
IL-10 expression in activated CD8+ T cells [1]: slightly increased IL-10 expression

B1: IL-10: a cytokine with multiple, pleotropic effects in immunoregulation and inflammation (protein, UniProt P22301 19-178, looked up)
Interleukin-10: SPGQGTQSENSCTHFPGNLPNMLRDLRDAFSRVKTFFQMKDQLDNLLLKESLLEDFKGYLGCQALSEMIQFYLEEVMPQAENQDPDIKAHVNSLGENLKTLRLRLRRCHRFLPCENKSKAVEQVKNAFNKLQEKGIYKAMSEFDIFINYIEAYMTMKIRN
PD-L1 expression on tumor cells [3]: not changed
effector status (IFNγ and TNFα) of mouse CD4+ T cells [4]: did not obviously alter the effector status
expression of T-cell exhaustion markers (PD-1, LAG3, TIM3) [5]: not altered
proliferative capacity of TILs ([6]; IL-10 added with IL-2: 6,000 U/mL rIL-2 plus 100 U/mL rIL-10, TILs from patients with lung cancer): robustly enhanced the proliferative capacity of TILs
proliferative capacity of TILs (entry into the cell cycle) ([6]; IL-10 alone, 100 U/mL rIL-10): did not drive TILs into the cell cycle
PD-1 expression on activated CD8+ T cells [7]: did not modulate PD-1 expression
expression of genes of signaling pathways (TCR signaling, Notch signaling, cell cycle, killing activity) ([8]; 20 days, FIG. 5F-I): upregulated genes related to several signaling pathways
expression of chemokine genes ([8]; FIG. 5J): variable depending on the specific chemokine
effector status (IFNγ and TNFα) of human CD4+ T cells [9]: did not obviously alter the effector status
